Experimental data: article PMC9902655
“And” between values parts separate entries of the source, which are not always exact repeats. Equal values may be shown once.

Target: human adiponectin (ADPN) from egg white of OVA ADPN knock-in chickens (human) (UniProt Q15848)
Assay: non-reducing SDS-PAGE and Western blot; crude egg white of KI hens 0090 and 0141, diluted, in RIPA buffer and Laemmli sample buffer, 95°C 5 min, 10% gel, non-reducing; anti-adiponectin blot; under reducing conditions the multimer bands decreased and the monomer band increased

- stoichiometry N: 3 and 6
Substance: human adiponectin (ADPN) from egg white of OVA ADPN knock-in chickens (from UniProt Q15848 19-244) (natural protein)
